Results as given in publication PMC4231748, “Human PrimPol mutation associated with high myopia has a DNA replication defect”.

Target: T1, PrimPol1-354 (polymerase domain, wild type) (human, UniProt Q96LW4 1-354)
T1 sequence: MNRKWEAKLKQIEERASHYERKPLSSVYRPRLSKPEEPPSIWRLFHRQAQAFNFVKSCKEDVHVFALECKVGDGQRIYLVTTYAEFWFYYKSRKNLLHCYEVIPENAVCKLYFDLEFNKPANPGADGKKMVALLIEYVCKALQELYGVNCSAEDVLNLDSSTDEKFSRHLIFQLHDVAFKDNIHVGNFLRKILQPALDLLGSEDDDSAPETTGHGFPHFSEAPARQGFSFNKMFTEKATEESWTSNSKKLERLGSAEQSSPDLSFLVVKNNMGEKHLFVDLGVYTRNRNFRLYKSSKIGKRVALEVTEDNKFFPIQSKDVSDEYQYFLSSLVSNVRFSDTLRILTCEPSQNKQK
Assay: EMSA; 10 mM Mg2+; text gives 0.67 uM, Figure 5 legend 0.69 uM; EMSA: 60 nM DNA, 10 mM Bis-Tris-Propane-HCl pH 7.0, 10 mM MgCl2, 1 mM DTT, 25 C, 60 min; 5% polyacrylamide gel in 0.5x TBE
Details: protein: recombinant; label: 5'-Hex on strand 1 (HP-20); 20 bp duplex, 5' overhang 30 nt on template strand (S12), other end blunt

B1: Overhanging DNA substrate (HP-20 primer / ND-50 TemplateTT) (dsDNA)
DNA 1: TGTCGTCTGTTCGGTCGTTC
DNA 2: CGCGCAGGGCGCACAACAGCCTTGAAGACCGAACGACCGAACAGACGACA
B1 showed a Kd of 690 nM.
